Assay results published in patent publication US20210403582A1 (JACOBIO PHARMACEUTICALS, published 2021).

Assays:
[1] = target: T1, human LIF protein (human, UniProt P15018 23-202); assay: competition ELISA, LIF coated, competitor LIFR-Fc 0.6125 ug/mL detected with anti-human Fc
T1 construct: Bought recombinant protein (Sino Biological / Yiqiao Shenzhou 14890-HNAH) in most assays; also called recombinant human LIF protein; rhLIF

[2] = target: T2, human CNTF (human, UniProt P26441 1-200, limits assumed); assay: ELISA, human CNTF coated at 1 µg/mL, HRP goat anti-mouse Fab, A450
T2 sequence (looked up): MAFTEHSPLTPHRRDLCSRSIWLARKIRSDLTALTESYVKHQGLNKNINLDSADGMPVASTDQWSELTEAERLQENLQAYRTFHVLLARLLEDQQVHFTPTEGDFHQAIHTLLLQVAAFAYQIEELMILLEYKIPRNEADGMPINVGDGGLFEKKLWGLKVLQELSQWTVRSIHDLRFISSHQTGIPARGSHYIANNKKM
Description: (§1) After washed four times with PBST, HRP-labeled goat anti-mouse Fab secondary antibodies were added and incubated at room temperature for 1 h. After washed four times with PBST, TMB colored solution was added and color developing for 10 min at room temperature. The absorption value at 450 nm was read by the enzyme maker. The data were analyzed and plotted using Origin pro 9 software.

[3] = target: T1, human LIF protein; assay: KinExA 4000, solution equilibrium
Description: The affinity of the purified monoclonal antibodies to the recombinant human LIF protein was determined by KinExA 4000. 200 mg PMMA hard beads were added with 30 μg of the 38E10E1C11 antibody and additional adding coating solution to 1 mL. The buffer composition is 1 xPBS, pH 7.4, 0.02% NaN3. And make sure that the beads were completely suspended in the solution, and rotated for 2 h at room temperature. The beads were naturally settled or quickly centrifuged at low speed. The supernatant was removed and the beads were blocked with PBS containing 1% BSA. 15 mL of 300 pM antigen solution and 15 mL of 240 pM Ab2 (38E10E1C11) solution were prepared. 0.6 mL of 300 pM antigen and 0.6 mL of 240 pM antibody Ab2 (38E10E1C11) were put into different sample tubes separately. The samples in the two tubes were well mixed and put together into one tube, the concentration of the antigen was 150 pM and the concentration of antibody Ab2 (38E10E1C11) was 120 pM at this time, and the solution was placed in the corresponding position in the tube holder. […] Each group was added with 1 μg/L1 Streptavidin Protein, DyLight 650 Solution, and was detected on machine set to incubate for 24 hours. In the KinExatm Pro software, the equilibrium dissociation constant (Kd) for n-curve analysis was calculated by the unknown ligand model, and the results are shown in FIG. 4.

[4] = target: recombinant mouse LIF protein (mouse, UniProt P09056 24-203); assay: ELISA, mouse LIF coated at 1 µg/mL, A450
Description: The recombinant mouse LIF protein (purchased from ACRO Biosystems) was diluted to 1 μg/mL, and was coated on the enzyme label plate, 100 μL of protein was added into every well, and incubated overnight in 4° C. The enzyme label plates were taken out next day, and the liquid was discarded, and were washed with PBST three times and blocked with 2% BSA in PBS for 1 h at room temperature, then washed with PBST three times, and added anti-human LIF antibodies 38E10E1C11, 5D8 and P36-033 at different concentrations and incubated for 1 h at room temperature. The liquid was discarded, and the plates were washed with PBST four times. The plates were added with HRP-labeled goat anti-mouse Fab antibody or goat anti-human FC antibody and incubated for 1 h at room temperature. Then the liquid was discarded, and the plates were washed four times with PBST and incubated with TMB colored solution in 10 minutes at room temperature. Stop color development by adding 2 mol/L H₂SO₄, and the absorption value at 450 nm is quantitated using an automated plate photometer, and the results were shown in FIG. 2.

[5] = target: human IL-6 (human, UniProt P05231 30-212, limits assumed); assay: ELISA, human IL-6 coated at 1 µg/mL, HRP goat anti-mouse Fab, A450
Description: as §1

[6] = target: T3, human OSM (human, UniProt P13725 26-221, limits assumed); assay: ELISA, human OSM coated at 1 µg/mL, HRP goat anti-mouse Fab, A450
T3 sequence (looked up): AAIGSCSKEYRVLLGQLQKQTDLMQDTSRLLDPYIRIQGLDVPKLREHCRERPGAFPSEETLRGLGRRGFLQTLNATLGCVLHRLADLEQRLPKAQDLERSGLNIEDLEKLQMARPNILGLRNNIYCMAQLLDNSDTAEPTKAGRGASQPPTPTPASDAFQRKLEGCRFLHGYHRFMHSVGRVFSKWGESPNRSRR
Description: as §1

[7] = target: recombinant machin LIF protein (machin, UniProt A0A2K5UCA8 23-202); assay: ELISA, machin LIF coated at 0.5 µg/mL, A450
Description: The recombinant machin LIF protein (purchased from Sino biological) was diluted to 0.5 μg/mL, and was coated on the enzyme label plate, 100 μL of protein was added into every well, and incubated overnight in 4° C. The enzyme label plates were taken out next day, and the liquid was discarded, and were washed with PBST three times and blocked with 2% BSA in PBS for 1 h at room temperature, then washed with PBST three times, and added anti-human LIF antibodies 38E10E1C11, 5D8 and P36-033 at different concentrations and incubated for 1 h at room temperature. The liquid was discarded, and the plates were washed with PBST four times. The plates were added with HRP-labeled goat anti-mouse Fab antibody or goat anti-human FC antibody and incubated for 1 h at room temperature. Then the liquid was discarded, and the plates were washed with PBST four times and incubated with TMB colored solution in 10 minutes at room temperature. Stop color development by adding 2 mol/L H₂SO₄, and the absorption value at 450 nm is quantitated using an automated plate photometer, and the results were shown in FIG. 3.

T1 sequence (P15018 23-202 limits assumed): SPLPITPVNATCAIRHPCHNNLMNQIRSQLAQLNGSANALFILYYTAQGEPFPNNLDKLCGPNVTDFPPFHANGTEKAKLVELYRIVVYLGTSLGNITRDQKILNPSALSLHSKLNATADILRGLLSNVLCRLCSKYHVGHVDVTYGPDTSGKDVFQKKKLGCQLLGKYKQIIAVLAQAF
recombinant machin LIF protein, sequence (A0A2K5UCA8 entry or part of it limits assumed): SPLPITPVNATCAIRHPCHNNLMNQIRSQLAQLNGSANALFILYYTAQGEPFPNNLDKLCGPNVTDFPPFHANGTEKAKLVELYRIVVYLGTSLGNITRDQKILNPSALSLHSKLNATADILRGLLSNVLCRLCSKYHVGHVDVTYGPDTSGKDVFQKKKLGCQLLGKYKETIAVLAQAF
human IL-6, sequence (P05231 30-212 limits assumed): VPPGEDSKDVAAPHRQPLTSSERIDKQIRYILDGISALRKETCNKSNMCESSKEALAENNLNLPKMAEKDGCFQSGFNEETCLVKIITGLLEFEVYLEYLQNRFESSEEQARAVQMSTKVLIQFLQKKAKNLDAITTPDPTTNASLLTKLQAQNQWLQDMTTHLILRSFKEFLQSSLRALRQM

IC50 [1]: 0.074 µg/mL
binding result [2]: no binding (tested: 25 ug/ml)
Kd [3]: 4.52 pM
binding result [4]: no binding (tested: 100 µg/mL (log 2))
binding result [5]: no binding (tested: 25 ug/ml)
binding result [6]: no binding (tested: 25 ug/ml)
EC50 (read off the curve) [7]: ~0.07 µg/mL
B1: 38E10E1C11 antibody (antibody, mouse IgG1, kappa)
heavy: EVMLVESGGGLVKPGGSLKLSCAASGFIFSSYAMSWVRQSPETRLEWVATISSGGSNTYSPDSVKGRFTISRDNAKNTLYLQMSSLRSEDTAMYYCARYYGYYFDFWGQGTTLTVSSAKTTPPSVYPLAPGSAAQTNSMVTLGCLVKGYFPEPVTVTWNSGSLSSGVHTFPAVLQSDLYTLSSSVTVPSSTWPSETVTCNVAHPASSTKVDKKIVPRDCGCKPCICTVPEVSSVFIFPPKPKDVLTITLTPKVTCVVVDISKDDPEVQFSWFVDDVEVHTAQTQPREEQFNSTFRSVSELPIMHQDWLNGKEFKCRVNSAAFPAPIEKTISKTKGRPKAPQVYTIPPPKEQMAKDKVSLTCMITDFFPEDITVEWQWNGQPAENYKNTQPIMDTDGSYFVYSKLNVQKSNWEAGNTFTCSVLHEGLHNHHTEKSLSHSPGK
light: DIHMTQSPASLSASVGETVTITCRASENIYSYLAWYQQKQGKSPQLLVYNAKTLAEGVPSRFSGSGSGTQFSLKINSLQPEDFGSYYCQHHYVTPLTFGAGTKLELKRADAAPTVSIFPPSSEQLTSGGASVVCFLNNFYPKDINVKWKIDGSERQNGVLNSWTDQDSKDSTYSMSSTLTLTKDEYERHNSYTCEATHKTSTSPIVKSFNRNEC
notes: Mouse IgG1, kappa light chain; also called 38E10E1C11 mAb; mAb38E10E1C11
